Measured values reported in patent US20230321209A1.

Biological target: human Adenovirus capsid
Test: SPR, peptide on adenovirus capsid (FIGS. 13A-13B)

Q: How did the list of priority (rank by SPR binding, high binders listed first) turn out when KKKKKKKKKKLIFLWLLWPVTLACFVLAAV [VME1_KLIFL SARS-CoV2 peptide with 9K poly-lysine tail] was run?
A: Its list of priority (rank by SPR binding, high binders listed first) is 4 rank.

Q: With KKKKKKALALLLLDRLNQLESKMSGK [NCAP_ALALL SARS-CoV2 peptide with 6K poly-lysine tail] as the binder, how does the list of priority (rank by SPR binding, high binders listed first) read?
A: Its list of priority (rank by SPR binding, high binders listed first) is 9 rank.

Q: How did the list of priority (rank by SPR binding, high binders listed first) turn out when KKKKKKLPKEITVATSRTLSYYKLGA [VME1_LPKEI SARS-CoV2 peptide with 6K poly-lysine tail] was run?
A: The list of priority (rank by SPR binding, high binders listed first) was 6 rank.

Q: How did the list of priority (rank by SPR binding, high binders listed first) turn out when KKKKKKKVTLVFLFVAAIFYLITPVHVMSK [R1AB_KVTLV SARS-CoV2 peptide with 6K poly-lysine tail] was run?
A: The list of priority (rank by SPR binding, high binders listed first) was 3 rank.

Q: Which list of priority (rank by SPR binding, high binders listed first) does the source give for KKKKKKKKKGLVAEWFLAYILFTRFFYVL [R1AB_GLVAE SARS-CoV2 peptide with 9K poly-lysine tail] here?
A: The list of priority (rank by SPR binding, high binders listed first) was 1 rank.

Q: Which list of priority (rank by SPR binding, high binders listed first) does the source give for KKKKKKKKKGLEAPFLYLYALVYFLQSINFV [AP3A_GLEAP SARS-CoV2 peptide with 9K poly-lysine tail] here?
A: Its list of priority (rank by SPR binding, high binders listed first) is 2 rank.

Q: For KKKKKKAQFAPSASAFFGMSRIGMEV [NCAP_AQFAP SARS-CoV2 peptide with 6K poly-lysine tail], which list of priority (rank by SPR binding, high binders listed first) is on record?
A: The list of priority (rank by SPR binding, high binders listed first) was 7 rank.
